The record followed here is patent US20250258178A1 (SHIONOGI, published 2025).

Some results are limits rather than exact numbers.

The target of experiment [1] is T1, human histidine-rich glycoprotein (HRG), purified from human plasma (human, UniProt P04196 19-525).
T1 construct: also called human purified HRG; human purified HRG protein
T1 sequence: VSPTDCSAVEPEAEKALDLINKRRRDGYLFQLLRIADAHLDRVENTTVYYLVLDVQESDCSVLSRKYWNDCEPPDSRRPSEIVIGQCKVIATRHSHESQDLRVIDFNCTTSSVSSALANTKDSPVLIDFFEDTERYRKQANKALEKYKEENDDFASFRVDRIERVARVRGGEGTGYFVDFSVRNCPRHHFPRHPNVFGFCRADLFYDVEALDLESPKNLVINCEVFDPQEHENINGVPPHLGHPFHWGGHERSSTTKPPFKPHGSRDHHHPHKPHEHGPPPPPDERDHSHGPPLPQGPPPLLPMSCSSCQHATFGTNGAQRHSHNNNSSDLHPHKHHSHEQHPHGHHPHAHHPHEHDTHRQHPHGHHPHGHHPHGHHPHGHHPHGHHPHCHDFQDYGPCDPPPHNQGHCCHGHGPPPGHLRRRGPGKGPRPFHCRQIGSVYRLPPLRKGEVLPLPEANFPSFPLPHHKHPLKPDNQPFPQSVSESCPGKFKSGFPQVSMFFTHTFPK
Description: sandwich ELISA, HRG captured by solid phase 3-4E. The method, then:
(§1) The capture antibody solution was dispensed at 25 μL per well into 384-well Maxisorp plates (NUNC), and the plates were incubated at room temperature for 3 hours. The plates were washed twice with 120 μL of washing solution per well (0.05% Tween 20-containing PBS). A blocking solution (1% BSA-containing PBS) was dispensed at 30 μL per well, and the plates were incubated at room temperature for 3 hours. The blocking solution was removed followed by dispensing the standard substance for evaluation at 20 μL per well (n=2), and the plates were incubated at room temperature for 3 hours. After washing the plates four times with the washing solution as described above, the solution of each detector antibody was dispensed at 10 μL per well, followed by dispensing a horseradish peroxidase-streptavidin solution (0.05 μg/mL) at 10 μL per well, and the plates were incubated at room temperature for 1 hour. After washing the plates four times with the washing solution as described above, a chromogenic substrate solution (TMB (3,3′,5,5′-tetramethylbenzidine)) was dispensed at 20 μL per well followed by incubating the plates at room temperature for 10 minutes, then a reaction stop solution 0.5 M H₂SO₄ was added at 20 μL/well, and the absorbance at 450 nm was measured.
(§2) The results regarding the evaluation of combinations chosen from 21 types of anti-HRG monoclonal antibodies are shown in Table 1. In Table 1, the absorbance at a wavelength of 450 nm of each combination was determined as follows: less than 1.0 OD: −, 1.0 OD or more and less than 2.0 OD: +, 2.0 OD or more and less than 3.0 OD: ++, and 3.0 OD or more: +++. The combinations of antibodies which could construct a sandwich ELISA system having enough level of absorbance change were 86 sets evaluated as ++ or +++ in Table 1.
Background: ELISA stands for enzyme-linked immunosorbent assay.

For experiment [2], the target named is T1, human histidine-rich glycoprotein …. As to the kind of experiment: sandwich ELISA, HRG captured by solid phase 13-2G. The method, then: as §1, §2
The target is the same in experiment [3]. As to the kind of experiment: sandwich ELISA, HRG captured by solid phase 19-1C. As to the method: as §1, §2
Experiment [4] has the same target. Description: sandwich ELISA, HRG captured by solid phase 31-1H. As to the method: as §1, §2
Experiment [5] has the same target. Description: sandwich ELISA, HRG captured by solid phase 32-4C. The method, then: as §1, §2
For experiment [6] the target is unchanged. As to the kind of experiment: sandwich ELISA, HRG captured by solid phase 65-3A. As to the method: as §1, §2
Experiment [7] has the same target. As to the kind of experiment: sandwich ELISA, HRG captured by solid phase 69-1A. The method, then: as §1, §2
Experiment [8] has the same target. Description: sandwich ELISA, HRG captured by solid phase 81-2C. The method, then:
as §1, §2

Experiment [9] shares this target. As to the kind of experiment: sandwich ELISA, HRG captured by solid phase 88-2E. As to the method: as §1, §2
For experiment [10] the target is unchanged. As to the kind of experiment: sandwich ELISA, HRG captured by solid phase 93-4C. As to the method: as §1, §2
Experiment [11] has the same target. As to the kind of experiment: sandwich ELISA, HRG captured by solid phase 50-6C-2A. As to the method:
as §1, §2

For experiment [12] the target is unchanged. As to the kind of experiment: sandwich ELISA, HRG captured by solid phase 67-8A-5F. As to the method: as §1, §2
For experiment [13] the target is unchanged. As to the kind of experiment: sandwich ELISA, HRG captured by solid phase 35-3G-10C. As to the method: as §1, §2
For experiment [14] the target is unchanged. As to the kind of experiment: sandwich ELISA, HRG captured by solid phase 94-7A-3C-3D. The method, then:
as §1, §2

Experiment [15] has the same target. As to the kind of experiment: sandwich ELISA, HRG captured by solid phase 6-12A-10B-9G. The method, then:
as §1, §2

Experiment [16] has the same target. Description: sandwich ELISA, HRG captured by solid phase 58-5C. The method, then:
as §1, §2

Experiment [17] has the same target. As to the kind of experiment: sandwich ELISA, HRG captured by solid phase 75-2D. As to the method:
as §1, §2

Experiment [18] shares this target. As to the kind of experiment: sandwich ELISA, HRG captured by solid phase 40-10G. The method, then:
as §1, §2

B1: anti-HRG monoclonal antibody 75-2D (antibody, V domains shown)
VH: QVQLQQSGAELMKPGASVKISCKATGYTFSSYWIEWVKQRPGHGLEWIGEILPGSGRTNYNEKFKGKATFTADTSSNTAYMQLSSLTSEDSAVYYCARYSYFYYFDYWGQGTTLTVSS
VL: DNVLTQSPAIMSASLGERVTMTCTASSSVSSSYLHWYQQKPGSSPKLWIYSTSNLASGVPARFSGSGSGTSYSLTISSMEAEDAATYYCHQYHRSPWTFGGGTKLEIK
notes: Mouse hybridoma monoclonal; also called clone No. 75-2D
As for B1, the “absorbance at 450 nm” value in [1], in [3], in experiment [4], in [5], in experiment [7] and in experiment [8] was less than 1 OD each time. The “absorbance at 450 nm” value in experiment [9], in experiment [13] and in [14] was less than 1 OD in each case. The “absorbance at 450 nm (OD450)” value in experiment [2] was 2 to 3 od; in [6], no less than 3 od; in experiment [10], 1 to 2 od; in experiment [11], no less than 3 od; in [12], no less than 3 od; in [15] it was no less than 3 od.

B2: anti-HRG monoclonal antibody 69-1A (antibody, V domains shown)
VH: EVKLEESGGGLVQPGGSMKLSCAASGFTFSDAWMDWVRQSPEKGLEWVAEIRSKANNHGTYYAESVKGRFTISRDDSKSSVYLRMNSLSAEDTGIYYCTRPFAYWGQGTLVTVSA
VL: DVVVTQTPLSLPVSLGDQASISCRSSQSLVHIDGNTYFHWYVQKPGQSPKLLIYKVSNRFSGVPDRFSGSGSGTDFTLKISRVEAEDLGVYFCSQSTHVPLTFGAGTKLELK
notes: Mouse hybridoma monoclonal; also called clone No. 69-1A
On to B2, for which the “absorbance at 450 nm (OD450)” value was no less than 3 od in experiment [1]; 1 to 2 od in [16]; 2 to 3 od in experiment [17]; 1 to 2 od in [10]; 1 to 2 od in experiment [18]; 2 to 3 od in [15]. The “absorbance at 450 nm” value in experiment [2], in [3], in experiment [4], in experiment [5], in [6] and in [7] was less than 1 OD throughout. Besides, the “absorbance at 450 nm” value in experiment [8], in experiment [9], in experiment [11], in experiment [12], in [13] and in [14] was less than 1 OD each time.
